The test addresses T1, HLA-A*02:01 (human).
T1 construct: MHC monomers captured on streptavidin plates; the UV-sensitive peptide is cleaved and exchanged with the test peptide; also called peptide-receptive MHC molecules; MHC class I
Briefly: UV ligand-exchange ELISA (anti-b2m); +++ = exchange yield >=50. The source says:
Candidate peptides for T cell based therapies according to the present invention were further tested for their MHC binding capacity (affinity). The individual peptide-MHC complexes were produced by UV-ligand exchange, where a UV-sensitive peptide is cleaved upon UV-irradiation, and exchanged with the peptide of interest as analyzed. Only peptide candidates that can effectively bind and stabilize the peptide-receptive MHC molecules prevent dissociation of the MHC complexes. To determine the yield of the exchange reaction, an ELISA was performed based on the detection of the light chain (β2m) of stabilized MHC complexes. The assay was performed as generally described in Rodenko et al. (Rodenko et al., 2006).
96 well MAXISorp plates (NUNC) were coated over night with 2 ug/ml streptavidin in PBS at room temperature, washed 4× and blocked for 1 h at 37° C. in 2% BSA containing blocking buffer. Refolded HLA-A*02:01/MLA-001 monomers served as standards, covering the range of 15-500 ng/ml. Peptide-MHC monomers of the UV-exchange reaction were diluted 100 fold in blocking buffer. Samples were incubated for 1 h at 37° C., washed four times, incubated with 2 ug/ml HRP conjugated anti-β2m for 1 h at 37° C., washed again and detected with TMB solution that is stopped with […]. Absorption was measured at 450 nm. […]

As for SLTGANITV, the peptide exchange yield fell in the range of 50 to 75%.

The values above are taken from patent US20160279215A1, “NOVEL PEPTIDES AND COMBINATION OF PEPTIDES FOR USE IN IMMUNOTHERAPY AGAINST VARIOUS TUMORS” (immatics biotechnologies GmbH, priority 2015, published 2016).
